Data taken from the RNAGym collection of RNA variant scans (doi:10.1073/pnas.2313332121).

B1: TPR t1 (parent)
chain: GACCAAUCUGCCCUCAGAGCUCGAGAACAUCUUCGGAUGCAGAGGAGGCAGGCUUCGGUGGCGCGAUAGCGCCAACGUCCUCAACCUCCAAUGCAUCCCACCACAUGAUGAUGCCUGAAGAGCCUUGGUUUUUUG

Variants of: B1
Experiment: polymerase ribozyme fitness, log enrichment relative to wild type (log ratio); higher = more active; in vitro selection for triplet polymerase activity
Summary of the method: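 One round of in vitro selection, in triplicate, was applied to PCR-built, transcribed mutant libraries of each subunit of a heterodimeric triplet polymerase ribozyme. The steps were annealing with a biotinylated primer, partner subunit and triplets, incubation frozen at −7 °C, gel excision of extended constructs, streptavidin-bead capture and RT-PCR. Fitness is the logarithm, base 2, of genotype enrichment over wild-type enrichment from inverse-variance-weighted replicate averages of Illumina-sequenced inputs and outputs, keeping genotypes with ≥10 input reads and ≥1 read per output.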

First: GACGAAUCUGCCCUCAGAGUUCGAGAACAUCUUCGGAUGCAGAGGAGCCAGGCUUCGGUGGCACGAUAGCGCCAACGUCCUCAACCUCCAAUGCAUCCCACCACAUGAUGAUGCCUGAAGAGGCUUGGUUUUUUG
Second: GACGAAUCUGCCCUCAGAGCUCGAGAACAUCUUAGGAUGCAGAGGAGGCAGGCUUCGGUGGCGCGAUAUCGCCAACGUCCUCAACCUCCAAUGCAUUCCACCACAUGAUGAUGACUGAAGAUACUUGGUUUUUUG
The “polymerase ribozyme fitness (log ratio)” value of the first is higher: -2.25 for the first, -3.31 for the second.

Compared with GACGAAUCUGCCCUCAGAGCUCGAGAACAUCUUCGGAUGCAGAGGAGGCAGGCUUCGGUGGCGCGAUAGCGACAACGUCCUCAACUUCCAAUGCAUCCCACCACAUGAUGACGCCUGAAGAACCUUGGUUUUUUC, GACGAAUCUGCCCUCAGAGCUCGAGAACAUCUUCGGAUGCAGAGGAGGAAGGCUUCGGUGGCGCGAUAGCGCCAACGUCCUCAACCUCCAAUGCAUCCCACCACAUGAUGAUGCCUGAAGAGCCUUGGUUUUUUG is lower in “polymerase ribozyme fitness (log ratio)” value: -0.311 for the first, -2.14 for the second.

Compared with GACGAAUCUGCCCUCAGAGCUCGAGAACAUCUUCGGAUGCAGAGGAGGCAGGCUUCGGUGGCGCGAUAGCGCCAACGUCCUCAACCUACAAUGCAUCCCACCACAUGAUGAUGCCUGAAGAGCCUUGGUUUUUUG, GACGAAUCUGCCCUCAGAGCUCGAGAACAUCUUCGGAUGCAGAUGAGGCAGGCUUCGGUGGCGCGAUAGCGCCAACGUCCUCAACCUCCAAUGCAACCCUCCACAUGAUGAUGCCUGAAGAGCCUUGGUUUUUUG is lower in “polymerase ribozyme fitness (log ratio)” value: -2.51 for the first, -3.73 for the second.

Going from GACGAAUCUGCUCUCAGAGCUCGAGAACAUCUUCGGAUGCAGAGGAGGCAGGCUUAGGUGGCGCGAUAGUGCCAACGUCCUCAACCUCCAAUGCAUCCCACCACAUGAUGCUGCCUGAAGAGCCUAGGUUUUUUG to GACGAAUCUGCCCUCAGAGCUCGAGAACAUCUUCGGAUGCAGAUGAGGCAGGCUUCGGUGGCGCGAUAGCGCCAACGUCCUCAACCUACAAUGCAUCCCACCACAUGAUGAUGCCUGAAGAGCAUUGGUUUUUUG, the “polymerase ribozyme fitness (log ratio)” value rises from -3.03 to -1.23.

Compared with GACGAAUCUGCCCUCAGAGCUCGAGAACAUCUUCGGAUGGAGAGGAGGCAGGCUUCGGUGGCGCGAUAGCGCCAACGUCCUCAACCUCCAAUGCAUCCCACCACAUGAUGAUGCCUGAAGAGCCUUGGUUUUUUG, GACGAAUCUGCCCUCAGAGCUCGAGAACAUCUUCGGAUGUAGAGGAGGCAGGCUUCGGUGGCGCGAUAGCGCCAACGUCCUCAACCUCCAAUGCAUCCCACCACAUGAUGAUGCCUGAAGAGCCUUGGUUUUUUG is higher in “polymerase ribozyme fitness (log ratio)” value: -2.02 for the first, -1.78 for the second.

Going from GACGAAUCUGCCCUCAGAGCUCGAGAACAUCUUCGGAUGCAGAGGAGGCAGGCUUCGGUGGCGCGAUAGCGCCAACGUCCUCAACCUCCAAUGCAUCCCACCACAUGAUGAUGUCUGAAGAGCCUUGGUUUUUUG to GACGAAUCUGCCCUCAGAGCUCGAGAACAUCUUCGGAUGCAGAUGAGGCAGGCUUCGGUGUCGCGUUAGCGGCAACGUCCUAAAACUCCAAUGCAUCCCACCACAUGAUGCUGCCUGAAGAGCCUUGGUUUUUUG, the “polymerase ribozyme fitness (log ratio)” value falls from -3.57 to -6.11.

GACGAAUCUGCCCUCAGAGCUCGAGAACAUCUUCGGAUGCAGAGGAGGCAGGCUUCGGUGGCGUGAUAGCGCCAACGUCCUCAACCUCCAAUGCAUCCCACCACACGAUGAUGCGUGAAGAGCCUUGGUUUUUUG and GACGAAUCUGCUCUCAGAGCUCGAGAACAUCUUCGGAUGCAGAGGAGGCAGGCUUCGGUUGCGCGAUAGCGCCAACGUCCUCAACCUCGAAUGCAUCCCACCACAUGAUGUUGCCUGAAGAGCCUUGGUUUUUUG are within 0.2 log units of each other in “polymerase ribozyme fitness (log ratio)” value: -5.73 for the first, -5.57 for the second.

First: GACGAAUCUGCCCUCAGAGCUCGAGAACAUCUUCGGAUGCAGAGGAGGCAGGCUUAGGUGGCGCGAUAGCGCCAACGUCCUCAACCUCCAAUGCAUCCCACCACAUGAUGAUGCCUGAAGAGCCUUGGUUUUUUG
Second: GACGAAUCUGCCCUAAGAGCUCGAGAACAUCUUCGGAUGCAGAGGAGGCAGGCAUCGGUGGCGCGAUAGCGCCAACGUCCUCAACCUCCAAUGCAUCCCACCACAUGAUGAUGCCUGAAGCGCCUUGGUUUUUUG
The “polymerase ribozyme fitness (log ratio)” value of the first is higher: -2.34 for the first, -2.91 for the second.

First: GACGAAUCUGCCCUCAGAGCUCGAGAACAUCUUCGGAUGCAGAGGAGGCAGGCUUCGGUGGCGCGAUAGCGCCAACGUCUUCCACCUUCAAUGCAUCCCACCACAUGAUGAUGCCUGAAGAGCCUUGGUUUUUUG
Second: GACGAAUCUGCCCUCAGAGCUCGAGAACAUCUUCGGAUGCAGAGGAGGCAGGCUUCGGUGGCGUGAUAGCGCCAACGUCCUCAACCUCCAAUGCAUCCCACCACAUGAUGAUGCAUGAAGAGACUUGGUUUUUUG
The “polymerase ribozyme fitness (log ratio)” value of the first is lower: -5.05 for the first, -3.09 for the second.

Compared with GACGAAUCUGCCCUCAGAGCUCGAGAACAUCUUCGGAUGCAGAGGAGGGAGGCUUCGGUCGCGCGAUAGCGCCAACGUCCUCAACCUCCAAUGCAUCCCACCACAUGAUGAUGCCUGAUGAGCCUUGGUUUUAUG, GACGAAUCUGCCCUCAGAGCUCGAGAACAUCUUCGGAUGCAGAGGAGGCAGGCUUCGGUGGCGCGAUAGCGCCAACGUUCUCAACCUCCAAUGCAUCCCACCAUAUGAUGAUGCCUGAAGAGCCUUGGUUUUUUG is higher in “polymerase ribozyme fitness (log ratio)” value: -3.77 for the first, -1.62 for the second.

With GACGAAUCUGCCCUCAGAGCUCGAGAACAUCUUCGGAUGCAAAGGAGGCAGGCUUCGGUGGCGCGAUAGCGCCAACGUCCUCAACCUCCAAUGCAUCCCACCACAUGAUGAUGCCUGAAGAGCCUUGGUUUUUUG the “polymerase ribozyme fitness (log ratio)” value was -3.06.
